Consider 167 variants from the RNAGym collection of RNA variant scans (doi:10.7554/elife.90254).

B1: OR4K15 (parent)
chain: GUUAACGGUCAUAGGCCAUGGAAACUAGGAGCACCAUUUCGCUGCCAGUGAAGAAAUGAACAAAGAAAAUCUGGGCCAGGCAGGCAUCAAAAGAAAUAGUCUUGCGCUCAACCAGAAAGUCUGUAAUCAUUUUAAGGGUA

In the data set the parent is B1. Description: self-cleavage, relative activity (ratio to wild type); higher = more cleavage; in vitro, sequencing; the parent is a self-cleaving ribozyme.
Take U72C C128A: the self-cleavage stood at 0.13.
On to U72A A98U, for which the self-cleavage is 0.33.
To U72C U124C belongs 0.17.
On to G74A A96C, for which the self-cleavage was 0.14.
Take G74A A96G: the self-cleavage amounted to 0.24.
As for U72A A90G, the figure is 0.18.
U72A U131C: the self-cleavage was found to be 0.14.
On to U70C U102A, for which the self-cleavage came out at 0.33.
To A68U G106A belongs 0.
To A68U U70C belongs 0.43; to G73A A95G, 0.28; to A69G A116U, 0.12.
A69G A116G: the self-cleavage was 0.56.
To G74A U108C belongs 0.01; to U70C A129U, 0.41.
As for A68U A91G, the figure is 1.35; as for U72C U102A, 0.07.
To A69G U70A belongs 1.26; to U72G A114C, 2.51; to G73A G79A, 0.17.
On to U70A A95G, for which the self-cleavage was 1.98.
Regarding A69G A95U, the self-cleavage is 1.56.
As for G74A A95G, the figure is 0.35; as for A68G U133C, 1.87; as for G73A A118G, 0.14.
Take U70C C109A: the self-cleavage was determined as 0.16.
For the variant U72G A135G, the self-cleavage amounted to 0.22.
To G74U A114U belongs 0.04.
As for U70C G75A, the figure is 0.21.
For U70C U130A, the self-cleavage was determined as 0.19.
As for U72C A98G, the self-cleavage stood at 0.03.
To U72C A98U belongs 0.3.
To A69G A126U belongs 1.33; to A69G A126G, 0.55; to U70A A78G, 0.33.
To U70A A78U belongs 0.43; to U70A A90G, 1.12; to U72A U120C, 0.18.
In the case of C71A U124C, the self-cleavage stood at 0.22.
To A69U A94G belongs 2.42; to A69G G83A, 2.11.
As for U72G A95G, the figure is 0.43; as for U72G A95U, 0.12.
Take U72C A89G: the self-cleavage is 0.24.
To A68G U108C belongs 0.01; to A68G U108A, 0.04; to U72C A117G, 0.22.
U72C A117C: the self-cleavage is 0.08.
For A69U A117G, the self-cleavage is 1.48.
As for A69G U133C, the figure is 1.33; as for G73A U122A, 0.15.
Regarding U72C U131A, the self-cleavage amounted to 0.1.
U72C U131C: the self-cleavage came to 0.16.
To U72C A134G belongs 0.16; to C71A A78U, 0.26.
As to U72A A117G, the self-cleavage was found to be 0.16.
As for A69G U122G, the figure is 1.83; as for U70C A114U, 0.02.
As for U70C A114C, the figure is 0; as for U70A U139A, 0.23.
Take U72G U102A: the self-cleavage worked out at 0.11.
In the case of A69C A117U, the self-cleavage was 0.21.
As for A68G U102A, the self-cleavage came out at 0.85.
To U70C U108A belongs 0.03.
To U70C U108C belongs 0.02; to A69G A82U, 0.18.
As for A69G A82G, the figure is 0.48.
On to G74A U87A, for which the self-cleavage was 0.22.
To A69U U102C belongs 2.2.
As for U72G C101A, the figure is 0.1; as for A69U A92G, 2.17.
Consider U70C A78U, for which the self-cleavage was 0.52.
As for U72A C76U, the figure is 0.28.
As for U72A C128U, the figure is 0.15; as for G74A A117G, 0.2; as for G74A A117U, 0.19.
Turning to A69C U132C, the self-cleavage came out at 2.58.
As to U70A C77U, the self-cleavage is 2.04.
As for G73U A78U, the figure is 0.15.
Turning to G73A C121G, the self-cleavage was 0.45.
To A68G U124A belongs 0.95; to U70C A82U, 0.37; to U72C A118G, 0.1.
As for A68G U130C, the figure is 1.13; as for A68G U130A, 0.91; as for A68G U127C, 1.05.
As for A68G U127A, the figure is 1.01; as for A68G U127G, 1.35; as for A68G U122A, 0.93.
On to A69G U131C, for which the self-cleavage stood at 0.55.
For the variant U72C U122A, the self-cleavage was 0.09.
U72C A129U: the self-cleavage stood at 0.07.
In the case of A69G A129G, the self-cleavage worked out at 0.87.
As for C71U A135C, the figure is 0.42; as for A69U A95G, 2.37; as for G74A U127C, 0.02.
With A69G U87C, the self-cleavage was 1.66.
Turning to A69G U87A, the self-cleavage amounted to 1.29.
To U72C G106A belongs 0.02; to U70C, 0.47.
As for U70G, the figure is 0.88; as for U70A, 0.83.
Take A69G U132A: the self-cleavage came to 0.69.
As for A69U U103C, the figure is 0.51; as for G74U C121A, 0.36.
To U72C C105A belongs 0.03; to U70A U72A, 0.24; to U70A U72C, 0.22.
To A68G U139A belongs 2.25; to U70C U97C, 0.68; to A69G A86G, 1.24.
Consider A68U U132C, for which the self-cleavage came out at 1.76.
To U70A A116G belongs 0.59; to A68U A114U, 0.06; to A69G G75C, 0.16.
For the variant A69G G99U, the self-cleavage came to 0.23.
To A69C A114G belongs 0.21; to G74C A111G, 0.02; to U72A A78U, 0.15.
Turning to U70C A111G, the self-cleavage came to 0.02.
As for C71A A98G, the self-cleavage is 0.14.
To U70C C128U belongs 0.31.
To A69U U72C belongs 0.36; to G74A U124A, 0.1.
To A68U G75C belongs 0.22; to A69G A91U, 1.63.
As to A69G A91G, the self-cleavage came to 1.21.
As for C71G U87A, the figure is 0.21; as for A69U A129U, 1.23.
As for G74U A111G, the figure is 0.04; as for U72A G119A, 0.47.
To U72C A86C belongs 0.28.
On to A68G U87C, for which the self-cleavage is 1.12.
In the case of A69G G123A, the self-cleavage was found to be 1.43.
As for U72C C107U, the figure is 0.01; as for A69G A96G, 1.52; as for A69G A96C, 1.58.
On to U72C A78G, for which the self-cleavage worked out at 0.25.
As for U72C A78C, the self-cleavage stood at 0.27.
To G73A U120C belongs 0.07; to A68G U70C, 0.51.
To A69G A134G belongs 1.17; to G73U A86G, 0.17.
To A69G A90G belongs 1.43; to U70A U103A, 0.67; to G74A A118G, 0.14.
For U70C A117U, the self-cleavage amounted to 0.59.
Consider G73U A126G, for which the self-cleavage was 0.07.
As for U70A U131C, the figure is 0.7; as for U72C U133C, 0.13; as for U70C U127C, 0.35.
As for G73U C105U, the figure is 0.01; as for G74C U127C, 0.13; as for G73U A92G, 0.16.
As for U70A A94G, the figure is 0.72; as for U72A A135U, 0.14; as for U72A A135G, 0.21.
U72C A140G: the self-cleavage was 0.34.
As for U72G U120C, the figure is 0.13; as for A69G C107U, 0.03; as for G73A A92G, 0.2.
Consider G74A A82G, for which the self-cleavage came out at 0.26.
As for G74C A140G, the figure is 0.23; as for A69G A111C, 0.02.
On to U70C U87G, for which the self-cleavage was found to be 0.04.
As for U72A A86U, the self-cleavage was 0.32.
U72A A86G: the self-cleavage stood at 0.17.
